For two substances, extent of PARP-1 labeling during the first minute, against PARP-1 associated with the wild type e-mH2A1.1 nucleosomes and amount of PARP-1 associated, percent of that associated with the WT emH2A1.1 nucleosome complex results are on record in patent US20100323974A1.

Assay [1] addresses poly(ADP-ribose) polymerase I (PARP-1), native, co-purified from HeLa cells (UniProt P09874). The assay is described as follows: cell-based or functional assay.
The target in assay [2] is mutated e-mH2A1.1 nucleosome complex (HXTX motif at positions 213-216 converted to AAAA) (human) (UniProt O75367). The experiment in a line: tagged nucleosome complexes isolated at 300 mM NaCl, silver stained SDS-PAGE, PARP-1 relative to histone H1.
Sequence of mutated e-mH2A1.1 nucleosome complex (HXTX motif at positions 213-216 converted to AAAA) (human) (O75367 whole entry, change not shown, one chain of several): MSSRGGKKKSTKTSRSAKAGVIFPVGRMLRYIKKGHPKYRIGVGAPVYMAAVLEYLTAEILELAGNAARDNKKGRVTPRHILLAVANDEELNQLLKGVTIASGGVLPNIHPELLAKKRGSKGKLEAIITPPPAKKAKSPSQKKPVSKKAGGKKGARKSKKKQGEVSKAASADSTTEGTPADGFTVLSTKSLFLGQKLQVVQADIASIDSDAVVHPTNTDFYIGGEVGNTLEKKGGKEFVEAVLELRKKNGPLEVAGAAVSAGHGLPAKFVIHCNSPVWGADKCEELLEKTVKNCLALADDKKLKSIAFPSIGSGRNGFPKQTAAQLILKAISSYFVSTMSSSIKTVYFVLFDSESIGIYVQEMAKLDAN

Sequence of poly(ADP-ribose) polymerase I (PARP-1), native, co-purified from HeLa cells (P09874 2-1014 limits assumed): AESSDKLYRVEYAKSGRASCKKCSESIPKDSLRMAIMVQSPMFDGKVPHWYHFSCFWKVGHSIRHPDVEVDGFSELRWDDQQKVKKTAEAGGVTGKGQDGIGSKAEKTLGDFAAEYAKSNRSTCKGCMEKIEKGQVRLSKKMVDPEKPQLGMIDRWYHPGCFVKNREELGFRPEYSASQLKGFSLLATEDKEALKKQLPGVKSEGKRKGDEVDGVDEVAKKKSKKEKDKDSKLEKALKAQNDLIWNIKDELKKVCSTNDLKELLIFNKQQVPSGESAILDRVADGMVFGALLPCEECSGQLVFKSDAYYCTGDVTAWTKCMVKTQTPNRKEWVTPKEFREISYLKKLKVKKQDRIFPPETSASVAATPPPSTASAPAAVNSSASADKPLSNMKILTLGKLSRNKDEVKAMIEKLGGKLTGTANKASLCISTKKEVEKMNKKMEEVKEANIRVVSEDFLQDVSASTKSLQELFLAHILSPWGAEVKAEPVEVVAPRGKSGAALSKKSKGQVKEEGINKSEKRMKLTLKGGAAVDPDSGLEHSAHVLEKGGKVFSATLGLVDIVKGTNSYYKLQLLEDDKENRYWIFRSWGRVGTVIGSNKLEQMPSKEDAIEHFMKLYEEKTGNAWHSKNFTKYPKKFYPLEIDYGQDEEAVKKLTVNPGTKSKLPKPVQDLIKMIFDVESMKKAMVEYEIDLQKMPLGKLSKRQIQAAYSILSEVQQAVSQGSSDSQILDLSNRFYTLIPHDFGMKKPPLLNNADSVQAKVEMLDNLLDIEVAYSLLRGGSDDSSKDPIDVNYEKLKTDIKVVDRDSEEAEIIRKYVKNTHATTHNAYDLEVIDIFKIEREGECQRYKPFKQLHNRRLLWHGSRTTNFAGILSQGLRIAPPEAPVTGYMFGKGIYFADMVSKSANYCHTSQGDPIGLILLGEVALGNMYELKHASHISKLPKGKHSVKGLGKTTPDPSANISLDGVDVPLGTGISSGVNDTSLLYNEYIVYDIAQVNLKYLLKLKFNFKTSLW

For the substance “mutated e-mH2A1.1 nucleosome complex (HXTX motif at positions 213-216 converted to AAAA) (from UniProt O75367 1-369)”, the extent of PARP-1 labeling during the first minute, against PARP-1 associated with the wild type e-mH2A1.1 nucleosomes in assay [1] was 37 times.
Turning to “poly(ADP-ribose) polymerase I (PARP-1), native, co-purified from HeLa cells (from UniProt P09874 2-1014)”, the amount of PARP-1 associated, percent of that associated with the WT emH2A1.1 nucleosome complex in assay [2] lay in the range of 8 to 10%.
